Changes are numbered by the printed parent chain. Each block holds one binder with its values, some of them ahead of it.
Biological target: T1, human ASGR-1 mutant construct H203 (human, UniProt P07306 1-291)
T1 construct: Arg/Glu scanning: non-arginine residues were changed to arginine; Transiently expressed on CHO-S cells
T1 sequence: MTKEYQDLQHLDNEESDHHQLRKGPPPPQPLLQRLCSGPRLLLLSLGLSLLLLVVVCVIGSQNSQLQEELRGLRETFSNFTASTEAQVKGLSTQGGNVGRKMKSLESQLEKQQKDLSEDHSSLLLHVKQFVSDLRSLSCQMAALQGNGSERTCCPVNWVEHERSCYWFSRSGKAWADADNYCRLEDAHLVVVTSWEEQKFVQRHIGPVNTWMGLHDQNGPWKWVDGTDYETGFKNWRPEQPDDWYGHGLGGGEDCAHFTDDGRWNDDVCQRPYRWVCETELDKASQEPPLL
Experiment: FACS ratio: H203 normalized value / wt normalized value
In short: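 Transiently transfected CHO-S cells expressing wild-type or mutant hASGR-1 incubated with antibody at 5 ug/ml, 1 h at 4 °C; bound antibody detected by Alexa Fluor 647 anti-Fc plus 7-AAD, by flow cytometry. Binding normalized to expression using an unaffected antibody (65C12), then to wild type; hits defined as >3× IQR above third quartile.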

B2: 5E5 (antibody, V domains shown)
VH: QVQLVESGGGVVQPGRSLRLSCAASGFTFSNYVMHWVRQAPGKGLEWVAVIWYDGSNKYYADSVKGRFTISRDNSKNTLYLQMNSLRAEDTAVYYCTREVYSSGWYDYGMDVWGQGTTVTVSS
VL: DIQMTQSPSSLSASVGDRVTITCRASQGIRNDLGWYQQKPGKAPKRLIYAASSLQSGVPSRFSGSGSGTEFTLTISSLQPEDFATYYCLQHYSYPRTFGQGTKVEVK
notes: mAb
- Normalization to wt ASGR1 Binding: 1.48

B3: 7G4 (antibody, V domains shown)
VH: B2 VH with S30N, N84T, T97A, V100K, G104N
VL: B2 VL with K39R, F83S, Q90H, H91Q, V106I
notes: mAb
- Normalization to wt ASGR1 Binding: 1.2

B8: 56E5 (antibody, V domains shown)
VH: QVQLVQSGAEVKKPGASVKVSCQASGYTFTGYHMHWVRQAPGQGLEWMGWINPNNNATNYAQKFQGRVTMTRDTSISTAYMELRRLRSDDTAVYHCARDGTSSFDYWGQGTLVTVSS
VL: DIQMTQSPSSVSASVGDRVTITCRASQGIRKWLAWYQQKPGKAPKLLIYAASSLQSGVPSRFSGSGSGTDFTLTISSLQPEDFATYYCQQANSFPFTFGPGTKVDIK
notes: mAb
- Normalization to wt ASGR1 Binding: 0.962

B9: 72G9 (antibody, V domains shown)
VH: EVQLVESGGGLVKPGGSLRLSCAASGFTFSSYSMNWVRQAPGKGLEWVSSISGSSSYIYYADSVKGRFTISRDNAKNSLYLQMNSLRAEDTAVYFCARGGSRGFDPWGQGTLVTVSS
VL: B8 VL with V11L, G28S, R30T, K31S, W32Y, A34N, A50T, A91S, N92H
notes: mAb
- Normalization to wt ASGR1 Binding: 0.893

B12: 25A4 (antibody, V domains shown)
VH: QVLLVQSGAEVKRPGASVKVSCKASGYTFTNYDINWVRQATGQGLEWMGWMYPNSGNTGYAQKFQGRVTMTRNTSISTAYMELSSLRSEDTAVYYCASSSGWYYFDYWGQGTLVTVSS
VL: DIVMTQFPDSLAVSLGERATIKCKSSQSVLYSSHNNNYLAWYQQKPGQPPKLLLYWASTRESGVPDRFSGSGSGTEFTLTISSLEAEDVAVYYCQQYYSTPPTFGQGTKVEIK
notes: mAb
- Normalization to wt ASGR1 Binding: 1.27

B13: 26C4 (antibody, V domains shown)
VH: B12 VH with L3Q, R13K, T41S, Y52N, K63R, S77N
VL: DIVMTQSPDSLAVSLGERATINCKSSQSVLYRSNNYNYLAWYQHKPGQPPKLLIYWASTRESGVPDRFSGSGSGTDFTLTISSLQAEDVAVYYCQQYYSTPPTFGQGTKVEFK
notes: mAb
- Normalization to wt ASGR1 Binding: 1.57

B16: 190F8 (antibody, V domains shown)
VH: QVQLVESGGGVVQPGRSLRLSCAASGFTFSTYGMHWVRQAPGKGLEWVAVIWYDGSNKNYADSVKGRFTISRDNSKNTLYLQMNSLRAEDTAVYYCARDQGVGYDGLDVWGQGTTVTVSS
VL: DIQMTQSPSSLSASVGDRVTITCRTSQGIGNYLAWFQQKPGKAPKSLLYKASSLQSGVPSKFSGSGSGTDFTLTISSLQPEDFATYYCQQYMTYPLTFGGGTKVEIK
notes: mAb
- Normalization to wt ASGR1 Binding: 1.11

B19: 198G3 (antibody, V domains shown)
VH: B16 VH with R19K, S56T, Y80C
VL: B16 VL with T5A, N31K, S56G
notes: mAb
- Normalization to wt ASGR1 Binding: 0.75

B21: 191G1 (antibody, V domains shown)
VH: B16 VH with T31S, K58E, N59H, Q100R, D105Y
VL: B16 VL with T25A, G30S, L48I, K50A, Q90H, M92L
notes: mAb
- Normalization to wt ASGR1 Binding: 1.07

B22: 194C10 (antibody, V domains shown)
VH: QVQLQQWGAGLLKPSETLSLTCAVSGGSFRYYYWSWIRQPPGKGLEWFGEINHSGSTNYNPSLKSRVTISIDTSKNQFSLKLRSVTAADTAVYYCARDYGAFDIWGQGTMVTVSS
VL: EIVLTQSPGTLSLSPGERATLSCRASPSVNSGYLAWYQQKPGQTPRLLIFGASSRATGIPDRFSASGSGADFTLTISRLEPEDFAVYFCQQYESSPWTFGQGTKVEIK
notes: mAb
- Normalization to wt ASGR1 Binding: 0.978

More lines, now with the values ahead:

- Normalization to wt ASGR1 Binding: 1.42
B1: 7E11 (antibody, V domains shown)
VH: QVQLVESGGGVVQPGRSLRLSCAASGFTFSSFGMHWVRQAPGKGLEWVAIIWHDGSNKYYADSVKGRFTISRDNSNNTLYLQMSSLRAEDTAVYYCARDLSMGGMDVWGQGTTVTVSS
VL: DIQMTQSPSSLSASVGDRVTIACRASQNIISYLNWYQQKPGKAPKFLIYTASSLQSGVPSRFSGSGSGTDFTLTISSLQPEDFAIYYCQQTYSTPLTFGGGTKVEIK
notes: mAb

- Normalization to wt ASGR1 Binding: 0.707
B4: 218G4 (antibody, V domains shown)
VH: QVQLVESGGGVVQPGRSLRLSCAASGFTFSSYGLHWVRQAPGKGLEWVAVIWYDGSNKYYADSVKGRFTISRDNSKNTLYLQMNSLRVEDTAVYYCANWYYYYYGMDVWGQGTTVTVSS
VL: QSVLTQPPSVSAAPGQKVTISCSGSSSNIGNNYVSWYQQLPGTAPKLLLYDSNKRPSGIPARFSGSKSGTSATLGITGLQTGDEADYYCGTWDSSLNTVVFGGGTKLTVL
notes: mAb

- Normalization to wt ASGR1 Binding: 1.07
B5: 184E7 (antibody, V domains shown)
VH: QVQLVQSGAEVKTPGASVKVSCRASGYTFTSYNMHWVRQVPGQGLEWMGWINPNNGGSNYTQKFQGRVTMTRDTSISTAYMELSRLRSDDTAVYYCARKFGDWGQGTLVTVSS
VL: DIQMTQSPSSRSASIGERVTITCRASQGISNYLAWIQQKPGTAPKSLIYAASSLQSGVSSRFSGSGFGTDFTITISSVQREDFATYYCQQYNGYPFTFGHGTKVDIK
notes: mAb

- Normalization to wt ASGR1 Binding: 1.5
B6: 176H4 (antibody, V domains shown)
VH: QVQLVESGGGVVQPGRSLRLSCAASGFTFSSYGMHWVRQAPGKGLEWVAIIWYDGSYKYYADSVKGRFTISRDNSKNTLYLQMSSLRAEDTAVYYCARDAHDFWSGYFAYWGQGALVTVSS
VL: DIVMTQTPLSLSVTPGQPASISCKSSQSLLHGDGKTYLYWYLQKPGQPPQLLIYEVSNRFSGVPDRFSGSGSGTDFTLKISRVEAEDVGIYYCMQSIQIPWTFGQGTRVEIK
notes: mAb

- Normalization to wt ASGR1 Binding: 0.616
B7: 194A4 (antibody, V domains shown)
VH: QVQLVQSGTEVKKPGASLKVSCKASGYTFTVYYLNWVRQAPGQGLEWMGWINPNSGGTNYAQKFQGRVTMTRDTSISTAYMELSRLRSDDTAVYYCARGYDILTGWGQGTLVTVSS
VL: EIVLTQSPGTLSLSPGERATLSCRASRGVSNIYLAWYQQKPGQAPRLLIYGASNRATGIPDRFSGSGSGTDFTLTISRLEPEDFAVYYCQHNDYSMFTFGPGTKVDIK
notes: mAb

- Normalization to wt ASGR1 Binding: 1.18
B10: 6G7 (antibody, V domains shown)
VH: QVQLVESGGGVVQPGRSLRLSCAASGFTFSSYGMHWVRQTPGKGLEWVAIISYVGKNKYYADSVKGRFTISRDNSKNTLYLQMNSLRAEDTAVYYCARRGNSYGGYGMDVWGQGTTVTVSS
VL: DIQMTQSPSSRSASVGDRVTITCQASQDISNYLNWCQQKPGKALKLLIYDASTLETGVPSRFSGSGSGTDFTFTISSVQPEDIATYYCQQYDNVPITFGQGTRLEIK
notes: mAb

- Normalization to wt ASGR1 Binding: 0.997
B11: 4A2 (antibody, V domains shown)
VH: B12 VH with L3Q, A9T, R13K, Y52H, M70L
VL: DIVMTQSPDSLAVSLGERATINCKSSQSILHSSNNNNYLAWFQQKPGQPPKLLLYWASTRESGVPDRFSGSGSGTDFTLTISSLQPEDVAVYYCQQYYNTPVTFGPGTKVGIK
notes: mAb

- Normalization to wt ASGR1 Binding: 1.42
B14: 29H8 (antibody, V domains shown)
VH: B12 VH with L3Q, K12Q, R13K, Y52N, K63R, T78A
VL: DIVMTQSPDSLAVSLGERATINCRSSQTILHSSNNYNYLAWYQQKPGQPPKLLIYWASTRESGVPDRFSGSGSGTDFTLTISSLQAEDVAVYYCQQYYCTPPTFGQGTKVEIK
notes: mAb

- Normalization to wt ASGR1 Binding: 1.18
B15: 75G3 (antibody, V domains shown)
VH: QVQLQQWGAGLLKPSETLSLTCAVYGGSLSGSYWSWIRQPPGKGLEWIGEINLSGSTNYNPSLKSRVTISVDTSKSQFSLTLRSVTAADTAVYYCARDYGGLDYWGQGTLVTVSS
VL: EIVLTQSPGTLSLSPGERATLSCRARQNVDSSYLAWYQQKPGQAPRLLIYGASSRATGIPDRFSGSGSGTDFTLTISRLEPEDFAVFYCQQYERSPWTFGQGTKVEIK
notes: mAb

- Normalization to wt ASGR1 Binding: 0.868
B17: 194C1 (antibody, V domains shown)
VH: B16 VH with T31S, K58E, N59H, D99N, Q100R, D105Y
VL: B16 VL with T25A, G30S, L48I, K50A, Q89L, Q90H, M92L
notes: mAb

- Normalization to wt ASGR1 Binding: 1.75
B18: 197G3 (antibody, V domains shown)
VH: B16 VH with A23V, T31S, Y32H, Q100P, G101S, L107M
VL: DIQMTQSPSSLSASVGDRVTITCRASQGIGNHLAWFQQKPGKAPKSLIYAASSLQSGVPSKFSGSRSGTDFSLTISSLQPEDFATYYCQQYSNYPVTFGPGTKVDIK
notes: mAb

- Normalization to wt ASGR1 Binding: 0.912
B20: 191G10 (antibody, V domains shown)
VH: B16 VH with T31S
VL: B16 VL with N31K, A51V
notes: mAb

- Normalization to wt ASGR1 Binding: 1.37
B23: 22G5 (antibody, V domains shown)
VH: EVQLLESGGGLVQPGGSLRLSCAASGFTFSSYAMNWVRQAPGMGLEWVSVISRSGGYTYYADSVKGRFTISRDNSKNTLYLQMNSLRAEDTAVYYCASRLAVAGSEAFDIWGQGTLVTVSS
VL: DIQMTQSPSSLSASVGDRVTITCRASQNISSYLNWYQQKQGKAPKLLIYAASSLQNGVPSRFSGRGSGTDFTLTISSLQPEDFATYYCQQSYRTPLFTFGPGTKVDFK
notes: mAb

- Normalization to wt ASGR1 Binding: 1.18
B24: 48B12 (antibody, V domains shown)
VH: EVQLLESGGGLVQPGGSLRLSCAASGFTFSSYAMNWVRQAPGKGLEWVSAISGRGGNTFYADSVKGRFTISRDNSKNTLYLQMNSLRAEDTAVYYCAKRETYNWNYEGFDYWGQGTLVTVSS
VL: SYELTQPPSVSVSPGQTARITCSGDALPKKYAYWYQQKSGQAPVLVIYEDSKRPSGIPERFSGSSSGTMATLTISGAQVEDEADYYCNSTDSSGNHVVFGGGTKLTVL
notes: mAb
